Assay results: article PMC6900432, “Zinc binding regulates amyloid-like aggregation of GAPR-1” (Bioscience Reports, 2019)

Target: the molecule itself
Test: non-reducing SDS/PAGE and Western blot of oligomers; 15 uM GAPR-1 with 37.5 uM heparin and 100 uM Zn2+ in NT-50 buffer (25 mM Tris, 50 mM NaCl, pH 7.4) at 37 C; aliquots at 0, 2, 7 and 20 h, non-reducing Laemmli buffer, boiled 5 min; blot with rabbit polyclonal anti-GAPR-1

B1: Golgi-Associated plant Pathogenesis Related protein 1 (GAPR-1), wild type (natural protein)
chain: MGKSASKQFHNEVLKAHNEYRQKHGVPPLKLCKNLNREAQQYSEALASTRILKHSPESSRGQCGENLAWASYDQTGKEVADRWYSEIKNYNFQQPGFTSGTGHFTAMVWKNTKKMGVGKASASDGSSFVVARYFPAGNVVNEGFFEENVLPPKK
notes: GAPR-1 (GLIPR-2), UniProt Q9H4G4 as printed; No tag is named; purification was by cation exchange; also called GAPR-1 WT; GLIPR-2; source: E. coli XL-1 Blue, purified (cation exchange, SP Sepharose FF)
  binding result: binds
